From paper PMC9482650, “Quantitative fragmentomics allow affinity mapping of interactomes” (Nature Communications, 2022)

Assays:
Test in all cases: holdup assay
Parameters in all cases: key: below the threshold = too weak to quantify, mostly under pKd 3.1 to 4
Conditions in all cases: plain residues with an end cap or a label only (N-terminal biotin on a linker: ado-ado)
[1] = target: FRMPD2_3, Q68DX3
[2] = target: T1, MPDZ_5, O75970
T1 sequence (O75970 695-796, limits assumed, looked up): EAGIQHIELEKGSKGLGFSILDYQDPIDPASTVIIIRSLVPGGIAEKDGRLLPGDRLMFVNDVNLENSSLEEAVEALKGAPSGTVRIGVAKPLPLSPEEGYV

[3] = target: TJP1_3, Q07157
[4] = target: T2, SIPA1L2, Q9P2F8
T2 sequence (Q9P2F8 945-1036, limits assumed, looked up): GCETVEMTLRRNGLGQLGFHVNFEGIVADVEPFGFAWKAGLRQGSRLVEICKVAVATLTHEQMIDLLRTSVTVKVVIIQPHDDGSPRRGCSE

[5] = target: NHERF4_4, Q86UT5
[6] = target: T3, PDZRN3_1, Q9UPQ7
T3 sequence (Q9UPQ7 244-349, limits assumed, looked up): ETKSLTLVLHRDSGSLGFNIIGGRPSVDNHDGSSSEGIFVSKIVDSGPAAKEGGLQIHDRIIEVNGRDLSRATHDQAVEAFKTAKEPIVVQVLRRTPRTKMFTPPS

[7] = target: T4, RAPGEF6, Q8TEU7
T4 sequence (Q8TEU7 525-625, limits assumed, looked up): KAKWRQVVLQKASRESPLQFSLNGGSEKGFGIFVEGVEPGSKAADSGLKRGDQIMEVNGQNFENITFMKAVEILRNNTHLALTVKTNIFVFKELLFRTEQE

[8] = target: T5, MPDZ_10, O75970
T5 sequence (O75970 1624-1722, limits assumed, looked up): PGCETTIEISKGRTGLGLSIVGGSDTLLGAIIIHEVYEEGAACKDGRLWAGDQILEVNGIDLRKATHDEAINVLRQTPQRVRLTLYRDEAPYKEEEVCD

[9] = target: T6, SNTG2, Q9NY99
T6 sequence (Q9NY99 68-166, limits assumed, looked up): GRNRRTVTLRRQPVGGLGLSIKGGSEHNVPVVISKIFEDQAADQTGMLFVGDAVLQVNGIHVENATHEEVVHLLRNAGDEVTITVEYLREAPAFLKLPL

[10] = target: Inadl_5, Q8NI35
[11] = target: T7, MPDZ_12, O75970
T7 sequence (O75970 1857-1958, limits assumed, looked up): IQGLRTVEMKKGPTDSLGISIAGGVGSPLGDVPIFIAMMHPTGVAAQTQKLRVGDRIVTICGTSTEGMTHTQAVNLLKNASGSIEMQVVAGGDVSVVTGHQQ

[12] = target: T8, NHERF3_3, Q5T2W1
T8 sequence (Q5T2W1 238-333, limits assumed, looked up): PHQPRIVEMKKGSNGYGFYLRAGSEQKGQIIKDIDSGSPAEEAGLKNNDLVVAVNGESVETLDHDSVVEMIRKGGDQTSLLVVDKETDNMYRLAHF

[13] = target: GRID2IP_1, A4D2P6
[14] = target: T9, DFNB31_1, Q9P202
T9 sequence (Q9P202 135-233, limits assumed, looked up): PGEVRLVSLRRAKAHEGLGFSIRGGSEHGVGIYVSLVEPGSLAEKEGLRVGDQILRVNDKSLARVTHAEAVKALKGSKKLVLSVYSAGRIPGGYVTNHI

[15] = target: DLG1_3, Q12959
[16] = target: AHNAK1, Q09666
[17] = target: SNX27, Q96L92
[18] = target: T10, LIN7B, Q9HAP6
T10 sequence (Q9HAP6 88-185, limits assumed, looked up): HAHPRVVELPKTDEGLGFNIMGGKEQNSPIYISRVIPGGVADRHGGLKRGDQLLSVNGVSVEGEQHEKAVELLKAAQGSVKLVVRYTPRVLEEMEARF

[19] = target: T11, DLG3_2, Q92796
T11 sequence (Q92796 221-321, limits assumed, looked up): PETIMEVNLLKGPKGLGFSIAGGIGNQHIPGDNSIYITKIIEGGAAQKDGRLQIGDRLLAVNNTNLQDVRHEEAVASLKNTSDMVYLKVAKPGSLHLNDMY

[20] = target: T12, DLG3_1, Q92796
T12 sequence (Q92796 125-227, limits assumed, looked up): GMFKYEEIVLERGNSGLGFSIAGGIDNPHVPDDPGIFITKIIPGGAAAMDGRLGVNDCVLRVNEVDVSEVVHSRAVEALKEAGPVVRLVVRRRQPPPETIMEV

[21] = target: Inadl_3, Q8NI35
[22] = target: NHERF4_2, Q86UT5
[23] = target: LDB3, O75112
[24] = target: SCRIB_1, Q14160
Chain of SCRIB_1, Q14160 (Q14160 718-814): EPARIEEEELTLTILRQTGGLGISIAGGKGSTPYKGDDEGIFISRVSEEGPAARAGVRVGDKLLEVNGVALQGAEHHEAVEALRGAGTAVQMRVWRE

Chain of NHERF4_4, Q86UT5 (Q86UT5 464-550): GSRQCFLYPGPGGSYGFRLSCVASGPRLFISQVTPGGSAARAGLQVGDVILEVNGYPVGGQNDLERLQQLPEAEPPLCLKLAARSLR
Chain of FRMPD2_3, Q68DX3 (Q68DX3 1073-1166): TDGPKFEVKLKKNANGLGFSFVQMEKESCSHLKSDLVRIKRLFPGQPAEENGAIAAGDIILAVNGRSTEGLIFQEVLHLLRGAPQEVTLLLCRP
Chain of Inadl_3, Q8NI35 (Q8NI35 359-469): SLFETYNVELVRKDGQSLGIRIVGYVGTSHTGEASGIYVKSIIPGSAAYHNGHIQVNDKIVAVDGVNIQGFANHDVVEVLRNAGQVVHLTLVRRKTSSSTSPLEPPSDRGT
Chain of AHNAK1, Q09666 (Q09666 4-100): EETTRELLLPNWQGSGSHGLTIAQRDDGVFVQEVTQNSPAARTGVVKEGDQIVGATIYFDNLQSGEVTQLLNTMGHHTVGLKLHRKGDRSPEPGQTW
Chain of NHERF4_2, Q86UT5 (Q86UT5 220-308): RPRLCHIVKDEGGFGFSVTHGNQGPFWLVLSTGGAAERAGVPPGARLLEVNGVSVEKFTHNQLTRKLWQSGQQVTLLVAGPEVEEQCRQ
Chain of Inadl_5, Q8NI35 (Q8NI35 673-780): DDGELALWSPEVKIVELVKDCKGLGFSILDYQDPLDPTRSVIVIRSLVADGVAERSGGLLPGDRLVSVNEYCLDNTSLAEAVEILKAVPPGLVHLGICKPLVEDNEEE
Chain of DLG1_3, Q12959 (Q12959 457-571): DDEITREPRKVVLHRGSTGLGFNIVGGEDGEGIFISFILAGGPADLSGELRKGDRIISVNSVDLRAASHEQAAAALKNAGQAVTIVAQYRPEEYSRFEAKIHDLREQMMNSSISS
Chain of GRID2IP_1, A4D2P6 (A4D2P6 1-87): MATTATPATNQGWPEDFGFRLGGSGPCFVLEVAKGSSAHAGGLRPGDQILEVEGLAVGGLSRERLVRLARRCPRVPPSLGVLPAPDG
Chain of TJP1_3, Q07157 (Q07157 416-512): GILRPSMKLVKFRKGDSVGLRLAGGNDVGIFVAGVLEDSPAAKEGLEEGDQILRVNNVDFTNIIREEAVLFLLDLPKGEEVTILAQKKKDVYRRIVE
Chain of LDB3, O75112 (O75112 1-94): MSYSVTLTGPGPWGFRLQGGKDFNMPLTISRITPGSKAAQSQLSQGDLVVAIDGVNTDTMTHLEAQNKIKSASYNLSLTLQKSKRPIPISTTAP

B1: FZD2, Q14332 (peptide)
chain: TNSRHGETTV
- pKd [1]: 3.62
- pKd [2]: below the threshold
- pKd [3]: below the threshold
- pKd [4]: below the threshold
- pKd [5]: 3.92
- pKd [6]: 3.99
- pKd [7]: below the threshold
- pKd [8]: below the threshold
- pKd [9]: 4.29
- pKd [10]: below the threshold
- pKd [11]: below the threshold
- pKd [12]: below the threshold
- pKd [13]: below the threshold
- pKd [14]: 3.78
- pKd [15]: 4.14
- pKd [16]: below the threshold
- pKd [17]: 5.64
- pKd [18]: 3.82
- pKd [19]: 4.72
- pKd [20]: 4.33
- pKd [21]: 3.51
- pKd [22]: below the threshold
- pKd [23]: below the threshold
- pKd [24]: 4.25

B2: FAM110B, Q8TC76 (peptide)
chain: ARESQKVSHV
- pKd [1]: below the threshold
- pKd [2]: below the threshold
- pKd [3]: below the threshold
- pKd [4]: below the threshold
- pKd [5]: below the threshold
- pKd [6]: below the threshold
- pKd [7]: below the threshold
- pKd [8]: 4.08
- pKd [9]: 4.08
- pKd [10]: below the threshold
- pKd [11]: below the threshold
- pKd [12]: below the threshold
- pKd [13]: below the threshold
- pKd [14]: 3.62
- pKd [15]: below the threshold
- pKd [16]: below the threshold
- pKd [17]: 4.42
- pKd [18]: below the threshold
- pKd [19]: 4.22
- pKd [20]: below the threshold
- pKd [21]: below the threshold
- pKd [22]: below the threshold
- pKd [23]: below the threshold
- pKd [24]: 3.74

B3: SCN5A, Q14524 (peptide)
chain: SPDRDRESIV
- pKd [1]: 3.48
- pKd [2]: below the threshold
- pKd [3]: below the threshold
- pKd [4]: below the threshold
- pKd [5]: 3.88
- pKd [6]: 3.91
- pKd [7]: below the threshold
- pKd [8]: 3.55
- pKd [9]: 4.69
- pKd [10]: below the threshold
- pKd [11]: below the threshold
- pKd [12]: below the threshold
- pKd [13]: below the threshold
- pKd [14]: 3.58
- pKd [15]: below the threshold
- pKd [16]: below the threshold
- pKd [17]: 5.26
- pKd [18]: below the threshold
- pKd [19]: 4.57
- pKd [20]: 3.9
- pKd [21]: 3.56
- pKd [22]: below the threshold
- pKd [23]: below the threshold
- pKd [24]: 3.57
